As usually defined, the koff is the first-order rate constant of dissociation. Low values mean slow dissociation, high ones fast dissociation.

This experiment addresses MBP-16E6(4C4S) (MBP-GGGGS-TEV-16E6, construct used in SPR) (HPV16, UniProt P03126 1-158, C87S | C104S | C118S | C147S). The experiment in a line: SPR.

B1: full-length human E6AP (C-terminal TEV-6xHis-Avi) (enzyme)
chain: MEKLHQCYWKSGEPQSDDIEASRMKRAAAKHLIERYYHQLTEGCGNEACTNEFCASCPTFLRMDNNAAAIKALELYKINAKLCDPHPSKKGASSAYLENSKGAPNNSCSEIKMNKKGARIDFKDVTYLTEEKVYEILELCREREDYSPLIRVIGRVFSSAEALVQSFRKVKQHTKEELKSLQAKDEDKDEDEKEKAACSAAAMEEDSEASSSRIGDSSQGDNNLQKLGPDDVSVDIDAIRRVYTRLLSNEKIETAFLNALVYLSPNVECDLTYHNVYSRDPNYLNLFIIVMENRNLHSPEYLEMALPLFCKAMSKLPLAAQGKLIRLWSKYNADQIRRMMETFQQLITYKVISNEFNSRNLVNDDDAIVAASKCLKMVYYANVVGGEVDTNHNEEDDEEPIPESSELTLQELLGEERRNKKGPRVDPLETELGVKTLDCRKPLIPFEEFINEPLNEVLEMDKDYTFFKVETENKFSFMTCPFILNAVTKNLGLYYDNRIRMYSERRITVLYSLVQGQQLNPYLRLKVRRDHIIDDALVRLEMIAMENPADLKKQLYVEFEGEQGVDEGGVSKEFFQLVVEEIFNPDIGMFTYDESTKLFWFNPSSFETEGQFTLIGIVLGLAIYNNCILDVHFPMVVYRKLMGKKGTFRDLGDSHPVLYQSLKDLLEYEGNVEDDMMITFQISQTDLFGNPMMYDLKENGDKIPITNENRKEFVNLYSDYILNKSVEKQFKAFRRGFHMVTNESPLKYLFRPEEIELLICGSRNLDFQALEETTEYDGGYTRDSVLIREFWEIVHSFTDEQKRLFLQFTTGTDRAPVGGLGKLKMIIAKNGPDTERLPTSHTCFNVLLLPEYSSKEKLKERLLKAITYAKGFGML
modifications: biotin on the Avi tag (BirA biotin-protein ligase) in the SPR experiments
As for B1, the koff was determined as 0.0004 s⁻¹.

These data come from publication PMC10902388 (2024).
